Consider one molecule from article doi:10.1101/2021.02.24.432656 (bioRxiv, 2021).

The target of this assay is T1, bacterially purified STAT1 recombinant protein (human, UniProt P42224 1-750).
T1 sequence: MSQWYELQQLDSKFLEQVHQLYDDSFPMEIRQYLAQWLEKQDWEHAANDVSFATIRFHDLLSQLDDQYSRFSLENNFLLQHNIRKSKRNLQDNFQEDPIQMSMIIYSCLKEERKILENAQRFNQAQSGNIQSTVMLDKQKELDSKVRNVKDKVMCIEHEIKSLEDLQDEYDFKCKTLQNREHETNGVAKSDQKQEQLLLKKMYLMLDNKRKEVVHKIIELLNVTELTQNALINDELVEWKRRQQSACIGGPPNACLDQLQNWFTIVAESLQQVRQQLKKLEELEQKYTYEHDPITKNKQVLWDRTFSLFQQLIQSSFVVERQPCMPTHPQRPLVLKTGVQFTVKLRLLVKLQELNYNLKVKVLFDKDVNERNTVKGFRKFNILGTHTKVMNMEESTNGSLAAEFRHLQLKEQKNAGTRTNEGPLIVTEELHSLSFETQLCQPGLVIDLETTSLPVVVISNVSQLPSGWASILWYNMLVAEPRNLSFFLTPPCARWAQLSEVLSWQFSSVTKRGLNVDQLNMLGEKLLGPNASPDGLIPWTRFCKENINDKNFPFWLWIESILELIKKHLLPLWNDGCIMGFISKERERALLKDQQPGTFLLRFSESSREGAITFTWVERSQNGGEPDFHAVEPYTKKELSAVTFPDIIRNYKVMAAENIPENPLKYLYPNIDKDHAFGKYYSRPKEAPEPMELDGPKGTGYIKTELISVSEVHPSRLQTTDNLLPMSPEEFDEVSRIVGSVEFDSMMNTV
Briefly: pull-down.

B1: GST-GFP fused with the C-terminal peptide of ORF6 wild type (49-61 amino acids) (domain or fragment)
chain: YSQLDEEQPMEID
Take B1: the binding result is listed as “binds”.
